From patent US20240228618A1 (Janssen / Centocor, published 2024)

Biological target: human CD123 (human, UniProt P26951 19-378)
Assay: cell-based or functional assay

Sequence of human CD123 (P26951 19-378): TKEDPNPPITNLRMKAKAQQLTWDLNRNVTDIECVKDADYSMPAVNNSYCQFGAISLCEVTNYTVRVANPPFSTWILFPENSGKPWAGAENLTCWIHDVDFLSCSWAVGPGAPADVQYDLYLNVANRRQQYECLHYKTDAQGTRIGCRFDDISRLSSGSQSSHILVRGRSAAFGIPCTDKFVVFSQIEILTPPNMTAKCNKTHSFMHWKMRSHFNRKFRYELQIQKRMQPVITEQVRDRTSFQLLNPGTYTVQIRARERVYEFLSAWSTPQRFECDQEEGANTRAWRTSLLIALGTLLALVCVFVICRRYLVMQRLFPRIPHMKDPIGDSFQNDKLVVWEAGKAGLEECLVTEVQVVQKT

B1: CD123×CD3 bispecific antibody (bispecific antibody, human IgG4 S228P, kappa, lambda, F234A L235A)
heavy 1: not shown
light 1: EIVLTQSPGTLSLSPGERATLSCRASQSVSSSYLAWYQQKPGQAPRLLIYGASSRATGIPDRFSGSGSGTDFTLTISRLEPEDFAVYYCQQDYGFPWTFGQGTKVEIKRTVAAPSVFIFPPSDEQLKSGTASVVCLLNNFYPREAKVQWKVDNALQSGNSQESVTEQDSKDSTYSLSSTLTLSKADYEKHKVYACEVTHQGLSSPVTKSFNRGEC
heavy 2: EVQLVESGGGLVQPGGSLKLSCAASGFTFNTYAMNWVRQASGKGLEWVGRIRSKYNAYATYYAASVKGRFTISRDDSKNTAYLQMNSLKTEDTAVYYCTRHGNFGNSYVSWFAYWGQGTLVTVSSASTKGPSVFPLAPCSRSTSESTAALGCLVKDYFPEPVTVSWNSGALTSGVHTFPAVLQSSGLYSLSSVVTVPSSSLGTKTYTCNVDHKPSNTKVDKRVESKYGPPCPPCPAPEAAGGPSVFLFPPKPKDTLMISRTPEVTCVVVDVSQEDPEVQFNWYVDGVEVHNAKTKPREEQFNSTYRVVSVLTVLHQDWLNGKEYKCKVSNKGLPSSIEKTISKAKGQPREPQVYTLPPSQEEMTKNQVSLTCLVKGFYPSDIAVEWESNGQPENNYKTTPPVLDSDGSFLLYSKLTVDKSRWQEGNVFSCSVMHEALHNHYTQKSLSLSLGK
light 2: QAVVTQEPSLTVSPGGTVTLTCRSSTGAVTTSNYANWVQQKPGQAPRGLIGGTNKRAPGTPARFSGSLLGGKAALTLSGAQPEDEAEYYCALWYSNLWVFGGGTKLTVLGQPKAAPSVTLFPPSSEELQANKATLVCLISDFYPGAVTVAWKADSSPVKAGVETTTPSKQSNNKYAASSYLSLTPEQWKSHRSYSCQVTHEGSTVEKTVAPTECS
In the case of B1, the “EC50 of T cell-mediated cytotoxicity, target HL-60, HS-5 stroma, no anti-CD44, 48 h” value is reported as 142 pM, the “EC50 of T cell-mediated cytotoxicity, target HL-60, HS-5 stroma, with anti-CD44, 48 h” value is reported as 76.2 pM and the “EC50 of T cell-mediated cytotoxicity, target HL-60, no stroma, no anti-CD44, 48 h” value is reported as 86.8 pM. For the same binder, the “EC50 of T cell-mediated cytotoxicity, target HL-60, no stroma, with anti-CD44, 48 h” value was 80.8 pM, the “EC50 of T cell-mediated cytotoxicity, target KG-1, HS-5 stroma, no anti-CD44, 48 h” value was 31.9 pM and the “EC50 of T cell-mediated cytotoxicity, target KG-1, HS-5 stroma, with anti-CD44, 48 h” value was 26.5 pM. The “EC50 of T cell-mediated cytotoxicity, target KG-1, no stroma, no anti-CD44, 48 h” value was 2.8 pM, the “EC50 of T cell-mediated cytotoxicity, target KG-1, no stroma, with anti-CD44, 48 h” value was 0.9 pM and the “EC50 of T cell-mediated cytotoxicity, target MOLM-13, HS-5 stroma, no anti-CD44, 48 h” value was 26.2 pM. The “EC50 of T cell-mediated cytotoxicity, target MOLM-13, HS-5 stroma, with anti-CD44, 48 h” value was 153 pM, the “EC50 of T cell-mediated cytotoxicity, target MOLM-13, no stroma, no anti-CD44, 48 h” value was 36.2 pM and the “EC50 of T cell-mediated cytotoxicity, target MOLM-13, no stroma, with anti-CD44, 48 h” value was 12.5 pM. The “EC50 of T cell-mediated cytotoxicity, target MV4-11, HS-5 stroma, no anti-CD44, 48 h” value was 5.7 pM, the “EC50 of T cell-mediated cytotoxicity, target MV4-11, HS-5 stroma, with anti-CD44, 48 h” value was 2.5 pM and the “EC50 of T cell-mediated cytotoxicity, target MV4-11, no stroma, no anti-CD44, 48 h” value was 5.6 pM. For the same binder, the “EC50 of T cell-mediated cytotoxicity, target MV4-11, no stroma, with anti-CD44, 48 h” value was 2.6 pM, the “EC50 of T cell-mediated cytotoxicity, target SKNO-1, HS-5 stroma, no anti-CD44, 48 h” value was 75.7 pM and the “EC50 of T cell-mediated cytotoxicity, target SKNO-1, HS-5 stroma, with anti-CD44, 48 h” value was 108 pM. For the same binder, the “EC50 of T cell-mediated cytotoxicity, target SKNO-1, no stroma, no anti-CD44, 48 h” value was 11.1 pM and the “EC50 of T cell-mediated cytotoxicity, target SKNO-1, no stroma, with anti-CD44, 48 h” value was 7.7 pM.
